{
  "source": "paper PMC13107021",
  "about": "“Structural basis for suramin binding to the C-terminal domain of the SARS-CoV-2 nucleocapsid protein”",
  "biological_target": "SARS-CoV-2 N-CTD (nucleocapsid C-terminal domain) (SARS-CoV-2, UniProt P0DTC9 247-364)",
  "assay": "BLI; BLI and EMSA: 25 mM sodium phosphate, 50 mM NaCl, pH 6.0; EMSA 25 C, 30 min, 10 uM RNA, 20% native PAGE",
  "conditions": "protein: recombinant; biotinylated for BLI; 15N-labelled for NMR; chain copies: 2; label: none",
  "data": [
    {"binder": "AUAUGGAAGAGCCCUA (ssRNA)", "note": "[15-nt SARS-CoV-2 genome-derived RNA]", "values": [
      {"measurement": "Kd", "value": "~10.1", "unit": "µM"}
    ]}
  ]
}
